In the test the target is protective antigen (PA) prepore (Bacillus anthracis). Briefly: cryo-EM structure.

As a reminder, the stoichiometry N is the number of molecules, sites or subunits per partner or assembly.

“And” between values parts separate entries of the source, which are not always exact repeats. Equal values may be shown once.

Turning to “protective antigen (PA) prepore (complex)”, the stoichiometry N was 7 and 8.

Values taken from article doi:10.1101/2021.04.18.440036.
